Laboratory results from US20250051465A1 (published 2025).

Assays:
[1] = target: T1, full length human LEPR on cells (human, UniProt P48357 22-1165); assay: cell-based or functional assay
T1 sequence: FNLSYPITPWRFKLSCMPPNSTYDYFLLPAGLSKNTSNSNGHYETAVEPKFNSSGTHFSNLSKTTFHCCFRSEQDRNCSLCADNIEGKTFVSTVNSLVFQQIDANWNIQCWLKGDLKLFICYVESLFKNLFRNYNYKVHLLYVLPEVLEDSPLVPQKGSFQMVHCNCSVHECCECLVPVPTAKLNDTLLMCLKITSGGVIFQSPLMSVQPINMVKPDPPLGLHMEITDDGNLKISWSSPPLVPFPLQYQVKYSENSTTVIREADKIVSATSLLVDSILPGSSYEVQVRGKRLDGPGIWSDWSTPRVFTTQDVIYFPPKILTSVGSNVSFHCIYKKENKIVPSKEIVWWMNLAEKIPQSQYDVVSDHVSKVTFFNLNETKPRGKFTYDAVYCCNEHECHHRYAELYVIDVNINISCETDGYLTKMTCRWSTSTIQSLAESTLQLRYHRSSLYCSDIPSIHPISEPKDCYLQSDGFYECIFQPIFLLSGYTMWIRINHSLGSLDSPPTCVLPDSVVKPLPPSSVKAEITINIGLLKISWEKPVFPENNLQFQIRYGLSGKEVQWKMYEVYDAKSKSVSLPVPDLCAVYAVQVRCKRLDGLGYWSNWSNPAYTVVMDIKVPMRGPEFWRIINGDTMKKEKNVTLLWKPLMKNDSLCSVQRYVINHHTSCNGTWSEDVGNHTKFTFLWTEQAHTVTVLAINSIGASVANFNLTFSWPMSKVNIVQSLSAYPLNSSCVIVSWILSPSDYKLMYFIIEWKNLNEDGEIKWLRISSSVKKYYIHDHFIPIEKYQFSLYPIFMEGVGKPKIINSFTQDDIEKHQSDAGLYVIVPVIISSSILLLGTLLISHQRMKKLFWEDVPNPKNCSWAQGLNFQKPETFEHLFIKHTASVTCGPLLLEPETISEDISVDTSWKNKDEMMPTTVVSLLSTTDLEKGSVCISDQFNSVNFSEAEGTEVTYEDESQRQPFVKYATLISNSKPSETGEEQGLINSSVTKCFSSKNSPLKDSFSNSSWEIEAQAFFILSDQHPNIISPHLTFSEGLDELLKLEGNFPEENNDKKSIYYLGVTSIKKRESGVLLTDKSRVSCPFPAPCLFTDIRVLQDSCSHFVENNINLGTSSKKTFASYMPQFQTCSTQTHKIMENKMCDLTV

[2] = target: mouse LEPR extracellular domain expressed with a C-terminal myc-myc-hexahistidine tag (mLEPR.mmh) (mouse, UniProt P48356 22-839); assay: SPR, captured mAb, 25C and 37C
mouse LEPR extracellular domain expressed with a C-terminal myc-myc-hexahistidine tag (mLEPR.mmh), sequence (P48356 other isoform, or with tags, fused parts or gaps): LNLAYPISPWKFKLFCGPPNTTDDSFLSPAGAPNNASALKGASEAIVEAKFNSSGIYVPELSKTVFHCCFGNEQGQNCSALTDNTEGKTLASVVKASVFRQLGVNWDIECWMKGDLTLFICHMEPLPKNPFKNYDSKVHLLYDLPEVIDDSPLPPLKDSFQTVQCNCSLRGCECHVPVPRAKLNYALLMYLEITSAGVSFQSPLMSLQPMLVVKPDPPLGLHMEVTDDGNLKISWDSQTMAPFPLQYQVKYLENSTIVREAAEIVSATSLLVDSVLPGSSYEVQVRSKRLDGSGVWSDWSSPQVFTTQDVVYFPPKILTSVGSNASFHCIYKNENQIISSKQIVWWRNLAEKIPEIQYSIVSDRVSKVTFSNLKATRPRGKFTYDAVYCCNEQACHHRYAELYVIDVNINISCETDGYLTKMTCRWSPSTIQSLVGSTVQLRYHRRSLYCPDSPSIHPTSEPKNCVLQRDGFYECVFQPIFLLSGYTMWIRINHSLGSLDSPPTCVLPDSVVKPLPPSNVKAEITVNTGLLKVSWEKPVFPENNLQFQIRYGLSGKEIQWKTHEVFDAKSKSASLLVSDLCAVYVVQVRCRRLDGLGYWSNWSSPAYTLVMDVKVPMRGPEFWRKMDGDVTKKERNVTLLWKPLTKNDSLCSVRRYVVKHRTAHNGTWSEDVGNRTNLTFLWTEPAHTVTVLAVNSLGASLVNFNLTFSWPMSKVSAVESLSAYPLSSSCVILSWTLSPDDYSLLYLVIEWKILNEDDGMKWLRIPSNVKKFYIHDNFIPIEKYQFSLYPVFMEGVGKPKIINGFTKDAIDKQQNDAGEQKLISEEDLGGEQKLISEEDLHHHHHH

[3] = target: rat LEPR extracellular domain expressed with a C-terminal myc-myc-hexahistidine tag (rLEPR.mmh) (rat, UniProt Q62959 22-839); assay: SPR, captured mAb, 25C and 37C
rat LEPR extracellular domain expressed with a C-terminal myc-myc-hexahistidine tag (rLEPR.mmh), sequence (Q62959 other isoform, or with tags, fused parts or gaps): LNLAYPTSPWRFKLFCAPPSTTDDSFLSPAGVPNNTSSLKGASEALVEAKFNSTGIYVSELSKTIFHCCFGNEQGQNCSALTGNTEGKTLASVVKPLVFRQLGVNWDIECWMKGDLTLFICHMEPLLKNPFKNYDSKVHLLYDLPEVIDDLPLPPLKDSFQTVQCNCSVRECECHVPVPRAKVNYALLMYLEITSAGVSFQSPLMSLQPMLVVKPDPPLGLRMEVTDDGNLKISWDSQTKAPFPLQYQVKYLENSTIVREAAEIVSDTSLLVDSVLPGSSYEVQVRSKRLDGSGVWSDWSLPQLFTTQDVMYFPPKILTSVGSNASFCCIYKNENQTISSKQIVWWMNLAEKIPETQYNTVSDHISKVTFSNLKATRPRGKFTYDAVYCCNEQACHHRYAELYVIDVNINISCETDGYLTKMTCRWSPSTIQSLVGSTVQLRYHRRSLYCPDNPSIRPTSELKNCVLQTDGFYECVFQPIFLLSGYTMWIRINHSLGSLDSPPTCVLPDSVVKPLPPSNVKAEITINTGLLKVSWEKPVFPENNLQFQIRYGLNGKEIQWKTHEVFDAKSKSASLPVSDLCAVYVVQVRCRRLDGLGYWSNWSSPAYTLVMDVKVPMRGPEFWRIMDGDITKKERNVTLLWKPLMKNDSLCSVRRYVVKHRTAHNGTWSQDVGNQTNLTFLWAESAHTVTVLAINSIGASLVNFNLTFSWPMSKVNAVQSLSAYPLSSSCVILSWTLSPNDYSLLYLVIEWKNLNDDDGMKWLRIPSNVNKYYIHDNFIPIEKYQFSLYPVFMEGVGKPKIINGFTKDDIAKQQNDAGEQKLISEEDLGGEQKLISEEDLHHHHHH

[4] = target: T2, human LEPR extracellular domain expressed with a C-terminal myc-myc-hexahistidine tag (hLEPR.mmh) (human, UniProt P48357 22-839); assay: Luminex, myc-captured full length extracellular domain
T2 construct: also called human LEPR-MMH; monomeric human LEPR
Procedure: Aliquots of microspheres with immobilized anti-myc monoclonal antibodies, prepared as described above, were added individually to 1 mL of the each of these protein supernatants. The microspheres were gently mixed, incubated for two hours at 25° C., washed twice with 1 mL of DBPS, centrifuged to remove the supernatant and finally resuspended in 1 mL of DPBS buffer. Forty-eight μL of anti-myc IgG coupled microspheres from individual reactions with full length human LEPR and with each of the human LEPR domain proteins were withdrawn and mixed together in 3.6 mL of PBS+20 mg/mL BSA+0.05% sodium azide (blocking buffer).
From this mixed pool, 75 μL of microspheres were plated per well on a 96 well filter plate (Millipore, Cat. No: MSBVN1250) and mixed with 25 μL of individual anti-human LEPR monoclonal antibodies (0.5 or 5 µg/mL), incubated for two hours at 25° C. and then washed twice with 200 μL of DPBS with 0.05% Tween 20 (washing buffer). […] After 30 minutes, the samples were washed twice with 200 μL of washing buffer and resuspended in 150 μL of wash buffer. The Median Fluorescence intensity (MFI) of the microspheres was measured in a Luminex Analyzer.

[5] = target: T3, extracellular domain portion of LEPR protein expressed with a C-terminal human Fc tag (hLEPR.hFc) (human); assay: blocking ELISA: 10 nM hLEPR.hFc to coated hLeptin, 500 nM Ab
T3 construct: also called dimeric human LEPR
Procedure: These antibody-protein or protein-protein complexes were then incubated for 1.5 hour at room temperature (RT). […] Samples were developed with a TMB solution (BD Biosciences, #555214; substrate A and B mixed at 1:1 ratio as per manufacturer's instructions) to produce a colorimetric reaction and then neutralized with 1M sulfuric acid before measuring absorbance at 450 nm on a Victor X5 plate reader.
Data analysis was performed using a sigmoidal dose-response model within Prism™ software (GraphPad). […] In the calculation, binding signal of 10 nM of hLEPR.hFc without the presence of the antibody was referenced as 100% binding or 0% blocking; and the baseline signal of buffer alone without the presence of hLEPR.hFc was referenced as 0% binding or 100% blocking.

[6] = target: T4, Macaca fascicularis LEPR extracellular domain expressed with a C-terminal myc-myc-hexahistidine tag … (Macaca fascicularis, UniProt Q9MYL0 22-837 (rhesus entry)); assay: SPR, captured mAb, 25C
T4 construct: also called mfLEP.MMH
Procedure: Equilibrium dissociation constants (KD values) for LEPR binding to purified anti-LEPR monoclonal antibodies were determined using a real-time surface plasmon resonance biosensor using a Biacore 4000 instrument. All binding studies were performed in 10 mM HEPES, 150 mM NaCl, 3 mM EDTA, and 0.05% v/v Surfactant Tween-20, pH 7.4 (HBS-ET) running buffer at 25° C. and 37° C. The Biacore sensor surface was first derivatized by amine coupling with a monoclonal mouse anti-human Fc antibody (GE, #BR-1008-39) to capture anti-LEPR monoclonal antibodies. […] Kinetic association (kₐ) and dissociation (kd) rate constants were determined by fitting the real-time binding sensorgrams to a 1:1 binding model with mass transport limitation using Scrubber 2.0c curve-fitting software. Binding dissociation equilibrium constants (KD) and dissociative half-lives (t½) were calculated from the kinetic rate constants as: […]

Binder | % activation, with 200 pM human Leptin [1] | % activation, without human Leptin [1] | EC50, STAT3-Luc reporter, with 200 pM human Leptin [1] | EC50, STAT3-Luc reporter, without human Leptin [1] | binding result [2] | binding result [3] | MFI [4] | % blockade [5] | 100 nM mfLEP.MMH Bound (RU) [6] | Kd [6] | koff [6] | kon [6] | t½ [6]
H4H18438P2 (antibody, human IgG4, V domains shown, Fully human antibody with human IgG4 Fc (H4H prefix)) VH: QVQLVESGGGVVQPGRSLRLSCAASGFSFNTYGMHWVRQAPGKGLEWVTIIWYDGSIKYYADSVKGRFTISRDNSKNTLYLQMNSLRAEDTAVYYCARGGYSGYLYFDYWGQGTLVTVSS VL: not shown | 76% | 5% | 2.02e-11 M | 1.49 nM | no binding | no binding | 6250 MFI | 15% |  |  |  |  | 
H4H18417P2 (antibody, human IgG4, V domains shown, Fully human antibody with human IgG4 Fc (H4H prefix)) VH: QVQLVESGGGVVQPGRSLRLSCAASGFTFSTYGMHWVRQAPGKGLEWVSVISYDESNKYYADSVKGRFTISRDNSKNALYLQMNSLRNEDTAVYYCARDRPFGLVTGWFDPWGQGTLVTVSS VL: not shown | 87% | 5% | 5.23e-10 M | 0.153 nM | no binding | no binding | 4890 MFI | 16% | 33 RU | 139 nM | 0.0123 s⁻¹ | 88300 M⁻¹ s⁻¹ | 0.9 min
H4H16679P2 (antibody, human IgG4, V domains shown, Fully human antibody with human IgG4 Fc (H4H prefix)) VH: QVQLVESGGGVVQPGRSLRLSCTASGFTFSSYAMYWVRQAPGKGLEWVSVIYYDGSYKYYADSVKGRFTISRDNSKNTLYLQMDSLRAEDTAVYYCASYNWNYWYFDFWGRGTLVTVSS VL: not shown | 88% | 65% | 7.37e-11 M | 0.0862 nM | no binding | no binding | 7510 MFI | 7% | 66 RU | 3.22 nM | 0.000141 s⁻¹ | 43700 M⁻¹ s⁻¹ | 82 min
H4H17321P2 (antibody, human IgG4, V domains shown, Fully human antibody with human IgG4 Fc (H4H prefix)) VH: QVQLVESGGGVVQPGRSLRLSCEASGFSSSDNAMYWVRQAPGKGLEWVSVIYHDGSYKYYEDSVKGRFTIARDNSKNTLYLQMNSLRAEDTAVYYCARYNWNHWYFDVWGRGTLVTVSS VL: not shown | 76% | 66% | 2.57e-10 M | 0.207 nM | no binding | no binding | 4700 MFI | 6% | 75 RU | 4.07 nM | 0.000133 s⁻¹ | 32600 M⁻¹ s⁻¹ | 87 min

Next, values leading:

% activation, with 200 pM human Leptin [1] | % activation, without human Leptin [1] | EC50, STAT3-Luc reporter, with 200 pM human Leptin [1] | EC50, STAT3-Luc reporter, without human Leptin [1] | binding result [2] | binding result [3] | MFI [4] | % blockade [5] | 100 nM mfLEP.MMH Bound (RU) [6] | Kd [6] | koff [6] | kon [6] | t½ [6] | Binder
97% | 5% | 4.1e-10 M | 11.9 nM | no binding | no binding | 6570 MFI | 28% | 58 RU | 82.4 nM | 0.00486 s⁻¹ | 59000 M⁻¹ s⁻¹ | 2.4 min | H4H18445P2 (antibody, human IgG4, V domains shown, Fully human antibody with human IgG4 Fc (H4H prefix)) VH: QVQLQESGPGLVKPSQTLSLTCTVSGGSISSGGDYWSWIRQLPGKGLEWIGYIYYSGSAYYNPSLKSRGTISIDTSKNQFSLKLTSVTAADTAVYFCVKLRFLEWFLGGWFGPWGQGTLVTVSS VL: not shown
66% | 13% | 5.23e-11 M | 0.212 nM | no binding | no binding | 7980 MFI | 8% |  |  |  |  |  | H4H18449P2 (antibody, human IgG4, V domains shown, Fully human antibody with human IgG4 Fc (H4H prefix)) VH: EVQLVESGGGLVQPGGSLRLSCVASGFTFNKYDMHWVRQTTGKGLEWVSGIDTDGDTYYPGSVKGRFTISRENAENSLYLQMNGLRVGDTAVYYCARWPWSGFYGAFDIWGQGTMVTVSS VL: not shown
76% | 68% | 1.91e-10 M | 0.187 nM | no binding | no binding | 3300 MFI | 9% | 83 RU | 11.6 nM | 0.000463 s⁻¹ | 40000 M⁻¹ s⁻¹ | 25 min | H4H17319P2 (antibody, human IgG4, V domains shown, Fully human antibody with human IgG4 Fc (H4H prefix)) VH: QVQLVESGGSVVQPGRSLRLSCAASGFTFSTYAMYWVRQTPGKGLEWVAVLYSDGSNKYYIDSVKGRFTISRDTSTNTLYLQMSSLRADDSALYYCARLNWDYWYFDLWGRGTLVTVSS VL: not shown
88% | 68% | 5.19e-11 M | 0.0619 nM | no binding | no binding | 7600 MFI | -7% | 93 RU | 2.27 nM | 0.000137 s⁻¹ | 60200 M⁻¹ s⁻¹ | 84 min | H4H16650P2 (antibody, human IgG4, V domains shown, Fully human antibody with human IgG4 Fc (H4H prefix)) VH: QVQLVESGGGVVQPGKSLRLSCVASGFTFSSDAMYWVRQAPGKGLEWVAVIYYDGNYQYYEDSVKGRFTISRDNSQNTLDLQMNSLRVDDTAVYFCARLNWDYWYLDLWGRGTLVTVSS VL: not shown
